Experimental data published in patent publication US20210283246A1.

Target: HBsAg (patient serum)
Experiment: Jacalin-bead fractionation of patient serum, HBsAg measured by CLIA

Jacalin lectin (from UniProt P18670 1-133)
share of the total serum HBsAg that binds to Jacalin: 5%
